“Also recorded” adds a separate entry of the source. Like-named read-outs stand apart in the source and are kept apart here. * marks the point of attachment. Cbz = O=C(OCc1ccccc1)*; CH2F = FC*

The target in one experiment is T1, purified caspase-14 (Homo sapiens, UniProt P31944).
T1 construct: human caspase-14 was purified as a heterodimer comprising a large subunit (17 KDa) and a small subunit (11 KDa); from tissue; host or cells: human heel stratum corneum (cornified cells)
T1 sequence (P31944 6-146 limits assumed): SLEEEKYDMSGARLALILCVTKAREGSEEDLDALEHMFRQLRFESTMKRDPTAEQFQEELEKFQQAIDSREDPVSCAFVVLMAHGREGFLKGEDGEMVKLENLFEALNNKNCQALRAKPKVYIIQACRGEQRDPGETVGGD
T1 sequence (P31944 153-242 limits assumed): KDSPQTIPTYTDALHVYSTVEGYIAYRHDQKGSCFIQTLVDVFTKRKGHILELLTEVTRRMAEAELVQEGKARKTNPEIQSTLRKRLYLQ
In words: Caspase-14 activity inhibitor assay with WEHD-MCA substrate. In kind it is biochemical. As to the method: Currently, 15 types of human caspases are known, but caspase-14 was incubated together with various peptide inhibitors for caspases (YVAD (SEQ ID NO:3), VDVAD (SEQ ID NO:4), DEVD (SEQ ID NO:5), VEID (SEQ ID NO:6), IETD (SEQ ID NO:7), LEHD (SEQ ID NO:8), DNLD (SEQ ID NO:9)), class-specific inhibitors for cysteine proteinases (IAA) or serine proteinases (AEBSF). WEHD-MCA (SEQ ID NO:10) was used as substrate in the presence of 1.3 M sodium citrate and 5 mM DTT, and the residual enzyme activity was measured. The tested enzyme concentrations were 5, 2.5 and 1.25 μM. The values were represented as mean values for multiple assays.
Caspase-14 activity was assayed by the method described in Mikolajczyk J. et al., Biochemistry 43, 10560-9 (2004), with some modifications, using Ac-WEHD-MCA as substrate. Briefly, an assay mixture was prepared from 45 μL of 0.1 M HEPES buffering solution (pH 7.5), 0.06 M NaCl, 0.01% CHAPS, 5 mM DTT, 1.3 M sodium citrate and 10 μM WEHD-MCA (all final concentrations). After adding enzyme sample (5 μl) to the mixture, it was incubated for 10-30 minutes. The reaction was suspended by addition of 150 μl of 0.1 M monochloroacetic acid, and Fluoroskan Ascent FL (Thermo Electron Co., Wolsam, Mass.) was used for measurement with a 355 nm excitation wavelength and a 460 nm luminous wavelength. For the inhibitor assay, caspase-14 and peptide inhibitor were incubated at room temperature for 15 minutes in assay buffer, and 5 μl of 100 μM WEHD-MCA was added to start the assay.
Human cornified cells (about 14 g) scraped from healthy human heel were extracted with 0.1 M Tris-HC1 (pH 8.0) containing 0.14 M NaCI, using a glass homogenizer. After centrifuging at 15,000g for 60 minutes, the supernatant was collected. It was concentrated with Amicon Ultra (Millipore, MA) and desalted with a Fast Desalting Column HR10/10 (Amersham Biosciences), and then the crude product was coated onto a HiPrep 16/10 Q XL column. The column was cleaned with 20 mM Tris-HCI (pH 8.0) and eluted with a 0-1 M linear NaCl gradient. The fraction was tracked by Western blotting using caspase-14antibody (H-99) (Santa Cruz Biotechnology, CA) and h14D^146 antibody. Each fraction was subjected to assay of hydrolytic activity on Ac Trp-Glu-His-Asp-methyl-coumarinamide (WEND-MCA) (Peptide Institute, Inc., Osaka, Japan). The positive fraction was applied to a Mono Q column equilibrated with the same buffering solution, and eluted with a NaCl gradient of up to 1M. The caspase-14 fraction was further separated by Mono S positive cation exchange chromatography. The column was equilibrated with 20mM acetic acid buffer (pH 4.5) and eluted with a 0-1 M NaCl gradient. The positive fraction was concentrated and applied to a chromatofocusing Mono P column equilibrated with 25 mM ethanolamine (pH 8.3). Next, elution was performed while forming a pH gradient from pH 8 to 5 using 46ml of Polybuffer (pH 5.0). Caspase-14 was subjected to final purification using Superdex 75 gel chromatography. The protein concentration was determined using a BioRad Protein Assay Kit (BioRad Lab, Hercules, CA).

In a further experiment the test system is skin equivalent models. The conditions noted are these: skin equivalent models (Weil et al., 1999); cited from earlier work.
Another experiment deals with T2, caspase-14 (Homo sapiens, UniProt P31944).
T2 construct: human caspase-14 was purified as a heterodimer comprising a large subunit (17 KDa) and a small subunit (11 KDa); from tissue; host or cells: human heel stratum corneum (cornified cells)
T2 sequence (P31944 6-146 limits assumed): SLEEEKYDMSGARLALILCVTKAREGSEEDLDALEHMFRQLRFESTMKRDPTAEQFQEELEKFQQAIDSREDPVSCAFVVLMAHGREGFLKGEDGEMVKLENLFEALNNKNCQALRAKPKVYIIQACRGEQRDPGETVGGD
T2 sequence (P31944 153-242 limits assumed): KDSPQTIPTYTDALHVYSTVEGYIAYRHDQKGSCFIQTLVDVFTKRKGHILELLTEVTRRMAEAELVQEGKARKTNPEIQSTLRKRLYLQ
In words: ICAD cleavage by purified caspase-14, Western blotting. In kind it is biochemical. The conditions noted are these: for inhibition of ICAD decomposition by caspase-14: prolonged incubation (up to 16 hours), kosmotropic salt. The text has this:
Identified were 33 KDa and 27 KDa cleavage products. […] ICAD decomposition was observed only in the presence of a kosmotropic salt.
For Western blotting and immunohistochemical analysis of ICAD, anti-ICAD IgG (FL331, Santa Cruz Biotechnology) and DFF45/ICAD Ab-2 (NeoMarkers, Fremont, Calif.) were used.
The protein was separated by SDS-polyacrylamide gel electrophoresis with a 5-20% gradient gel. After electrophoresis, the protein was transferred onto a polyvinylidene difluoride membrane (Immobilon-P, Millipore, Bedford, Mass.) and incubated together with anti-caspase-14 antibody including H-99, h14D^146 or C20. Peroxidase-labeled anti-rabbit IgG (Sigma) or anti-goat IgG was used as secondary antibody and ECL-Plus (Amersham) was used as immunoreactive protein for visualization by chemiluminescence.
The present inventors tested the effect of caspase-14 on ICAD, in the course of searching for natural substrates of caspase-14, because disappearance of nuclei is a very important event for final differentiation.
(In general: A western blot detects proteins with antibodies after separation by electrophoresis.)

In the next experiment the test system is caspases 1-10. In words: Recombinant active caspases incubated with SCCA-1. In kind it is biochemical. The text has this: Benzyloxycarbonyl (Z)-YVAD-FMK, Z-YVAD-FMK, Z VDVAD-FMK, Z-DEVD-FMK, Z-VEID-FMK, Z-IETD-FMK, Z-LEHD-FMK, and Z-VAD-FMK were purchased from BioVision (Mountain View, CA). Recombinant caspases 1-10 were obtained from BIOMOL Research Labs, Inc. (Plymouth Meeting, PA).
Although SCCA-1 belongs to the serpin superfamily, it inhibits cysteine proteinases such as papain and cathepsin L (Takeda A. et al., Biol. Chem. 383, 1231-6 (2002)). […] Kosmotropic conditions were used for caspase-14. […] The enzyme activity was not recovered even with extended incubation.

The target in a further experiment is T3, caspase-3 (Homo sapiens, UniProt P42574).
T3 construct: When recombinant active caspases were incubated together with SCCA-1; purchased BIOMOL Research Labs, Inc. (Plymouth Meeting, PA)
T3 sequence (P42574 29-175 limits assumed): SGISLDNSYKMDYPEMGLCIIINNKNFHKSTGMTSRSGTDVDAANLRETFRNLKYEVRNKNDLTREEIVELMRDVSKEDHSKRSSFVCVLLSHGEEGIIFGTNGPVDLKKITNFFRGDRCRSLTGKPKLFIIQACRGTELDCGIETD
T3 sequence (P42574 176-277 limits assumed): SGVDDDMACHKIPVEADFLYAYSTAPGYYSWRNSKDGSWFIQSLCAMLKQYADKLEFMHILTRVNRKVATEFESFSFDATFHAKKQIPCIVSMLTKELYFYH
Description: Caspase-3 activity with synthetic substrate DEVD-MCA or natural substrate ICAD. In kind it is biochemical. An excerpt:
The enzymatic properties of purified caspase-14 were highly unique. Purified caspase-14exhibited relatively wide inhibitor sensitivity with respect to known caspase inhibitors. […] It was shown, for the first time, that SCCA-1 is an endogenous inhibitor of caspase-14. The property most specific to SCCA-1 is its high specificity for caspase-14. The other members, caspases 1-10, had never been reported as being affected by SCCA-1. […] This behavior is in contrast to Crm A. […] is also known to suppress several caspases including caspase-1 and caspase-8 (Gagliardini V. et al., Science 263: 826-8 (1994)). XIAP is known to inhibit caspase-3, -7, and -9 (Srinivasula S.M. et al., Nature 410: 112-6 (2001)). Since the anti-apoptotic protein p35 inhibits caspase-1, -3, -6, -7, -8, and -10, it is believed to have a wider spectrum.

Where [1] appears, read: WEHD-MCA substrate, 1.3 M sodium citrate, 5 mM DTT, tested concentrations 5, 2.5 and 1.25 μM.

Take “LEHD-FMK: caspase-9 inhibitor (Cbz-LEHD-CH2F; SMILES CC(C)C[C@H](NC(=O)OCc1ccccc1)C(=O)N[C@@H](CCC(=O)O)C(=O)N[C@@H](Cc1c[nH]cn1)C(=O)N[C@@H](CC(=O)O)C(=O)CF)”: the “inhibiting effect against caspase-14 activity (residual enzyme activity)” value (shortened to “inhibiting effect … (residual enzyme activity)”) with purified caspase-14 (setting [1]) is “exhibited sensitivity”.

“VDVAD-FMK: caspase-2 inhibitor (Cbz-VDVAD-CH2F; SMILES CC(C)[C@H](NC(=O)OCc1ccccc1)C(=O)N[C@@H](CC(=O)O)C(=O)N[C@H](C(=O)N[C@@H](C)C(=O)N[C@@H](CC(=O)O)C(=O)CF)C(C)C)”: the “inhibiting effect … (residual enzyme activity)” value with purified caspase-14 (setting [1]) is listed as “exhibited sensitivity”.

Consider `NCCc1ccc(S(=O)(=O)F)cc1` [AEBSF, 4-(2-aminoethyl)benzenesulfonyl fluoride], for which, on purified caspase-14 (setting [1]), the “inhibiting effect … (residual enzyme activity)” value is listed as “no significant inhibiting effect”.

For the molecule Benzyloxycarbonyl (Z)-YVAD-FMK, the “inhibiting effect … (residual enzyme activity)” value with purified caspase-14 (setting [1]) is listed as “most powerful inhibiting effect; also recorded: strongest inhibition”.

With “VAD-FMK: pan-caspase inhibitor (Cbz-Val-Ala-Asp-CH2F)”, the “inhibiting effect … (residual enzyme activity)” value in the experiment with purified caspase-14 (setting [1]) is listed as “inhibited caspase-14 activity at about the same level as VAD-FMK; also recorded: one of the most powerful caspase-14 inhibitors”. The “inhibition of disappearance of nuclei” value with skin equivalent models is “inhibited disappearance of nuclei”.

On to “IETD-FMK: caspase-8 inhibitor (Cbz-IETD-CH2F; SMILES CC[C@H](C)[C@H](NC(=O)OCc1ccccc1)C(=O)N[C@@H](CCC(=O)O)C(=O)N[C@H](C(=O)N[C@@H](CC(=O)O)C(=O)CF)[C@@H](C)O)”, for which the “inhibiting effect … (residual enzyme activity)” value with purified caspase-14 (setting [1]) is recorded as “exhibited sensitivity”.

Take DEVD-FMK: caspase-3 inhibitor: the “inhibiting effect … (residual enzyme activity)” value with purified caspase-14 (setting [1]) is given as “exhibited sensitivity”.

Consider “VEID-FMK: peptide inhibitor for caspases (Cbz-VEID-CH2F; SMILES CC[C@H](C)[C@H](NC(=O)[C@H](CCC(=O)O)NC(=O)[C@@H](NC(=O)OCc1ccccc1)C(C)C)C(=O)N[C@@H](CC(=O)O)C(=O)CF)”, for which, in the experiment with purified caspase-14 (setting [1]), the “inhibiting effect … (residual enzyme activity)” value is “virtually no effect”.

Consider `O=C(O)CI` [IAA, iodoacetic acid], for which, at purified caspase-14, the “inhibiting effect … (residual enzyme activity)” value is reported as “no significant inhibiting effect”.

B1: SCCA-1: recombinant squamous cell carcinoma antigen 1, an ov-serpin family papain-like cysteine protease inhibitor (protein)
chain: MNSLSEANTKFMFDLFQQFRKSKENNIFYSPISITSALGMVLLGAKDNTAQQIKKVLHFDQVTENTTGKAATYHVDRSGNVHHQFQKLLTEFNKSTDAYELKIANKLFGEKTYLFLQEYLDAIKKFYQTSVESVDFANAPEESRKKINSWVESQTNEKIKNLIPEGNIGSNTTLVLVNAIYFKGQWEKKFNKEDTKEEKFWPNKNTYKSIQMMRQYTSFHFASLEDVQAKVLEIPYKGKDLSMIVLLPNEIDGLQKLEEKLTAEKLMEWTSLQNMRETRVDLHLPRFKVEESYDLKDTLRTMGMVDIFNGDADLSGMTGSRGLVLSGVLHKAFVEVTEEGAEAAAATAVVGFGSSPTSTNEEFHCNHPFLFFIRQNKTNSILFYGRFSSP
For B1, the “inhibiting effect … (residual enzyme activity)” value with purified caspase-14 (setting [1]) is on record as “inhibited caspase-14 activity against WEHD-MCA in a dose-dependent manner”. For the same molecule, the “inhibition of ICAD cleavage by caspase-14” value with caspase-14 (10 μM SCCA-1, in presence of kosmotropic salt) is “completely inhibited”. Besides, the “inhibition of ICAD decomposition by caspase-14” value was “inhibition of ICAD decomposition” in the experiment with caspase-14 and “inhibited ICAD decomposition by caspase-14” with caspase-14 (listed as SCCA 1). In addition, the “effect on enzyme activity of caspases 1-10” value with caspases 1-10 is listed as “none of the caspase members (1-10) were affected in their enzyme activity”. In addition, the “inhibition of caspase-3 activity” value in the experiment with caspase-3 (natural substrate ICAD) and with caspase-3 (synthetic substrate DEVD-MCA) was “did not inhibit” in each case.

Values taken from patent US9063157B2, “Method for evaluating skin condition using squamous cell carcinoma antigen as marker” (Shiseido Company, Ltd., priority 2005, dated 2015).
